In patent US7410949 (Hoffmann-La Roche, dated 2008):
*1 amine or outer side, *2 acyl side, *3 side chain or, on linkers, in order; H or OH if unused. Bridges are numbered along the chain shown (N, C = ends). [ ]: non-standard residue; d: D form. Cms = N-(5-O-carboxymethyl)-serotonin, O=C(COc1ccc2[nH]cc(CCN[*:1])c2c1)[*:2]; Nle = CCCC[C@H](N)C(=O)O

T1: human NPY2 receptor (human, UniProt P49146 1-381)
T1 sequence (looked up): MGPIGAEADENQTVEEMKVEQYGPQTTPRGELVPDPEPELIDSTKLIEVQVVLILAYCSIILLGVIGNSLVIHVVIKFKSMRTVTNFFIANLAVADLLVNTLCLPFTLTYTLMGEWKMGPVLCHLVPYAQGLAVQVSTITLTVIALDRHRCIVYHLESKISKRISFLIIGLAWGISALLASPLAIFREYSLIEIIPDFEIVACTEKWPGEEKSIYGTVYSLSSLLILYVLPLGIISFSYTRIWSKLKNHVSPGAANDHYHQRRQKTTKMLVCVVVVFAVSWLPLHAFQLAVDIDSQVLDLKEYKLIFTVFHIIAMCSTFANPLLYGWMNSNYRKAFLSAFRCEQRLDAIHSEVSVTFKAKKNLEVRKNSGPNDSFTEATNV


Columns and labels:
Assay in all cases: cell-based or functional assay
human NPY2 receptor = target: T1, human NPY2 receptor
Y1R = target: Y1R
Y1R, sequence (P25929 whole entry): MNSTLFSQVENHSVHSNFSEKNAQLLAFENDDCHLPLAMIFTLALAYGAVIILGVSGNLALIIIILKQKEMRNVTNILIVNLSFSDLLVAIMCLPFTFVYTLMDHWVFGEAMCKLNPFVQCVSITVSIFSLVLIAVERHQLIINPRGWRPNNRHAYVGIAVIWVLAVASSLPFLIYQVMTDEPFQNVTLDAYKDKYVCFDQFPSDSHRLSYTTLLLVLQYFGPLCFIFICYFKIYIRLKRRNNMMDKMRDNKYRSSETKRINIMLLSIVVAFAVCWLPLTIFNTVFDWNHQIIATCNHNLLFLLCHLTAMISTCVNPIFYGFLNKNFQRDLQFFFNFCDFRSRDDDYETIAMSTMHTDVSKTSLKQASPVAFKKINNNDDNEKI

Y4R = target: Y4R

| Binder | Y2R EC50(nM) FLIPR (human NPY2 receptor) | Y2R IC50(nM) cAMP (human NPY2 receptor) | Y1R EC50(nM) FLIPR (Y1R) | Y4R EC50(nM) FLIPR (Y4R) |
| --- | --- | --- | --- | --- |
| IKRHYLNLVTRQRY (N-methyl Arg at PYY position 35 (residue 11 of the second part); Pqa moiety between the two parts; C-terminal amide) [H-Ile-Lys-Pqa-Arg-His-Tyr-Leu-Asn-Leu-Val-Thr-Arg-Gln-(NMe)Arg-Tyr-NH2] | 18.9 nM | 0.417 nM |  |  |
| IKGRHYLNLVTRQRY (Cms moiety between the two parts; C-terminal amide) [H-Ile-Lys-Gly-Cms-Arg-His-Tyr-Leu-Asn-Leu-Val-Thr-Arg-Gln-Arg-Tyr-NH2] | 4.16 nM | 0.085 nM |  |  |
| Ac-I[Nle][Cms]RHYKNLVDRQRY-NH2 (lactam 7-11; SMILES CCCC[C@H](NC(=O)[C@@H](NC(C)=O)[C@@H](C)CC)C(=O)NCCc1c[nH]c2ccc(OCC(=O)N[C@@H](CCCNC(=N)N)C(=O)N[C@@H](Cc3c[nH]cn3)C(=O)N[C@@H](Cc3ccc(O)cc3)C(=O)N[C@H]3CCCCNC(=O)C[C@@H](C(=O)N[C@@H](CCCNC(=N)N)C(=O)N[C@@H](CCC(N)=O)C(=O)N[C@@H](CCCNC(=N)N)C(=O)N[C@@H](Cc4ccc(O)cc4)C(N)=O)NC(=O)[C@H](C(C)C)NC(=O)[C@H](CC(C)C)NC(=O)[C@H](CC(N)=O)NC3=O)cc12) [Cyclo Lys28-Aspu32 Ac-Ile-Nle-Cms-Arg-His-Tyr-Lys-Asn-Leu-Val-Asp-Arg-Gln-Arg-Tyr-NH2] | 146 nM | 32.2 nM | > 5000 nM | > 5000 nM |
| IARHYLNLVTRQRY (N-terminal acetyl; Pqa moiety between the two parts; C-terminal amide) [Ac-Ile-Ala-Pqa-Arg-His-Tyr-Leu-Asn-Leu-Val-Thr-Arg-Gln-Arg-Tyr-NH2] |  |  | > 5000 nM | 3020 nM |
| AKRHYLNLVTRQRY (Pqa moiety between the two parts; C-terminal amide) [H-Ala-Lys-Pqa-Arg-His-Tyr-Leu-Asn-Leu-Val-Thr-Arg-Gln-Arg-Tyr-NH2] |  |  | > 5000 nM | > 5000 nM |
| IKRHYLNLVTRQRY ((D)Arg at PYY position 35 (residue 11 of the second part); Pqa moiety between the two parts; C-terminal amide) [H-Ile-Lys-Pqa-Arg-His-Tyr-Leu-Asn-Leu-Val-Thr-Arg-Gln-(D)Arg-Tyr-NH2] |  |  | > 5000 nM | > 5000 nM |
| IKRHYLNLVTRQRY ((D)Arg at PYY position 33 (residue 9 of the second part); Pqa moiety between the two parts; C-terminal amide) [H-Ile-Lys-Pqa-Arg-His-Tyr-Leu-Asn-Leu-Val-Thr-(D)Arg-Gln-Arg-Tyr-NH2] |  |  | > 5000 nM | > 5000 nM |
| IKRHYLNLVTRQRY ((D)Val at PYY position 31 (residue 7 of the second part); Pqa moiety between the two parts; C-terminal amide) [H-Ile-Lys-Pqa-Arg-His-Tyr-Leu-Asn-Leu-(D)Val-Thr-Arg-Gln-Arg-Tyr-NH2] |  |  | > 5000 nM | > 5000 nM |
| IKRHYLNLVTRQRY ((D)Leu at PYY position 30 (residue 6 of the second part); Pqa moiety between the two parts; C-terminal amide) [H-Ile-Lys-Pqa-Arg-His-Tyr-Leu-Asn-(D)Leu-Val-Thr-Arg-Gln-Arg-Tyr-NH2] |  |  | > 5000 nM | > 5000 nM |
